According to article PMC5576896 (Cell reports, 2016):
Values belong to the binder of their own block, whether it stands above or below them.

B2: recombinant RECQL4 (natural protein, human, UniProt O94761 1-1208, looked up)
chain: MERLRDVRERLQAWERAFRRQRGRRPSQDDVEAAPEETRALYREYRTLKRTTGQAGGGLRSSESLPAAAEEAPEPRCWGPHLNRAATKSPQSTPGRSRQGSVPDYGQRLKANLKGTLQAGPALGRRPWPLGRASSKASTPKPPGTGPVPSFAEKVSDEPPQLPEPQPRPGRLQHLQASLSQRLGSLDPGWLQRCHSEVPDFLGAPKACRPDLGSEESQLLIPGESAVLGPGAGSQGPEASAFQEVSIRVGSPQPSSSGGEKRRWNEEPWESPAQVQQESSQAGPPSEGAGAVAVEEDPPGEPVQAQPPQPCSSPSNPRYHGLSPSSQARAGKAEGTAPLHIFPRLARHDRGNYVRLNMKQKHYVRGRALRSRLLRKQAWKQKWRKKGECFGGGGATVTTKESCFLNEQFDHWAAQCPRPASEEDTDAVGPEPLVPSPQPVPEVPSLDPTVLPLYSLGPSGQLAETPAEVFQALEQLGHQAFRPGQERAVMRILSGISTLLVLPTGAGKSLCYQLPALLYSRRSPCLTLVVSPLLSLMDDQVSGLPPCLKAACIHSGMTRKQRESVLQKIRAAQVHVLMLTPEALVGAGGLPPAAQLPPVAFACIDEAHCLSQWSHNFRPCYLRVCKVLRERMGVHCFLGLTATATRRTASDVAQHLAVAEEPDLHGPAPVPTNLHLSVSMDRDTDQALLTLLQGKRFQNLDSIIIYCNRREDTERIAALLRTCLHAAWVPGSGGRAPKTTAEAYHAGMCSRERRRVQRAFMQGQLRVVVATVAFGMGLDRPDVRAVLHLGLPPSFESYVQAVGRAGRDGQPAHCHLFLQPQGEDLRELRRHVHADSTDFLAVKRLVQRVFPACTCTCTRPPSEQEGAVGGERPVPKYPPQEAEQLSHQAAPGPRRVCMGHERALPIQLTVQALDMPEEAIETLLCYLELHPHHWLELLATTYTHCRLNCPGGPAQLQALAHRCPPLAVCLAQQLPEDPGQGSSSVEFDMVKLVDSMGWELASVRRALCQLQWDHEPRTGVRRGTGVLVEFSELAFHLRSPGDLTAEEKDQICDFLYGRVQARERQALARLRRTFQAFHSVAFPSCGPCLEQQDEERSTRLKDLLGRYFEEEEGQEPGGMEDAQGPEPGQARLQDWEDQVRCDIRQFLSLRPEEKFSSRAVARIFHGIGSPCYPAQVYGQDRRFWRKYLHLSFHALVGLATEELLQVAR

Key:
recombinant RECQL4 = target: B2; experiment: co-IP
[1] = target: MRE11-RAD50-NBS1 complex (recombinant) (human, UniProt P49959 1-708; Q92878 1-1312; O60934 1-754); experiment: co-IP
purified RECQL4-3XFLAG = target: T1, purified RECQL4-3XFLAG (human, UniProt O94761 1-1208); experiment: pull-down
T1 sequence (looked up): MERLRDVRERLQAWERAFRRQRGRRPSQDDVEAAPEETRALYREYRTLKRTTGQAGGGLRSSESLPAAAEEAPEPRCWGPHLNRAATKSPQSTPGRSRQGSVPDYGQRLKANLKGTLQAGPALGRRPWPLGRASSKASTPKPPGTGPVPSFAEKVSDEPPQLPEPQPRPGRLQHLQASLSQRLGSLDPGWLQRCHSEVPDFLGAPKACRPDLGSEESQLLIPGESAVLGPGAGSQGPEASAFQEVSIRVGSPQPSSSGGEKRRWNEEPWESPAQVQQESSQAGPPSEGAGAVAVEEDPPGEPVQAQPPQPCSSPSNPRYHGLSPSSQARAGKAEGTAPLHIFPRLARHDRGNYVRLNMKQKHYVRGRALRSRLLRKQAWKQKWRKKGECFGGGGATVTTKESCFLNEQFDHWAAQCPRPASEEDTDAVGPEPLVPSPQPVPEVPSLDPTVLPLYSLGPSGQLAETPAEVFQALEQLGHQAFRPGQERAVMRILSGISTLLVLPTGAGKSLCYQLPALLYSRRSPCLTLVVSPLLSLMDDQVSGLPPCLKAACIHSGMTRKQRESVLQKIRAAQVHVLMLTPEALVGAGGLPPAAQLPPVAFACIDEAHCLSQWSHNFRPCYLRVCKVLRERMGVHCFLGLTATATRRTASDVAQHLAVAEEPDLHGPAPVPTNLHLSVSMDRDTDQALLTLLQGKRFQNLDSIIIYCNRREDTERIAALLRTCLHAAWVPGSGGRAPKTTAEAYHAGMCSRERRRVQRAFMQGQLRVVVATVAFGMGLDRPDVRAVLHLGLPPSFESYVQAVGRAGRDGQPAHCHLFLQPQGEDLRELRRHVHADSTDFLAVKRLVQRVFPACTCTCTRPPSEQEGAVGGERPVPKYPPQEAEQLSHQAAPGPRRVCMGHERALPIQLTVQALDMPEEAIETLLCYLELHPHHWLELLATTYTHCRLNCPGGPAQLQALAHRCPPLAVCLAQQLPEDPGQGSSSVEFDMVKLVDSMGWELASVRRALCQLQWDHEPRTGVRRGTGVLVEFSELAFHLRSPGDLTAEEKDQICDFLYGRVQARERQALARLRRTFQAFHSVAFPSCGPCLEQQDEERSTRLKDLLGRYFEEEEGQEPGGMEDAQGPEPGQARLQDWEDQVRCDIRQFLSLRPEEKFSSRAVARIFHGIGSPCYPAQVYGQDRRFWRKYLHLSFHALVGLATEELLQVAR

RECQL4-KM-3XFLAG = target: T2, RECQL4-KM-3XFLAG (human, UniProt O94761 1-1208, lysine 508 replaced with methionine (RECQL4-KM)); experiment: pull-down
T2 sequence (looked up): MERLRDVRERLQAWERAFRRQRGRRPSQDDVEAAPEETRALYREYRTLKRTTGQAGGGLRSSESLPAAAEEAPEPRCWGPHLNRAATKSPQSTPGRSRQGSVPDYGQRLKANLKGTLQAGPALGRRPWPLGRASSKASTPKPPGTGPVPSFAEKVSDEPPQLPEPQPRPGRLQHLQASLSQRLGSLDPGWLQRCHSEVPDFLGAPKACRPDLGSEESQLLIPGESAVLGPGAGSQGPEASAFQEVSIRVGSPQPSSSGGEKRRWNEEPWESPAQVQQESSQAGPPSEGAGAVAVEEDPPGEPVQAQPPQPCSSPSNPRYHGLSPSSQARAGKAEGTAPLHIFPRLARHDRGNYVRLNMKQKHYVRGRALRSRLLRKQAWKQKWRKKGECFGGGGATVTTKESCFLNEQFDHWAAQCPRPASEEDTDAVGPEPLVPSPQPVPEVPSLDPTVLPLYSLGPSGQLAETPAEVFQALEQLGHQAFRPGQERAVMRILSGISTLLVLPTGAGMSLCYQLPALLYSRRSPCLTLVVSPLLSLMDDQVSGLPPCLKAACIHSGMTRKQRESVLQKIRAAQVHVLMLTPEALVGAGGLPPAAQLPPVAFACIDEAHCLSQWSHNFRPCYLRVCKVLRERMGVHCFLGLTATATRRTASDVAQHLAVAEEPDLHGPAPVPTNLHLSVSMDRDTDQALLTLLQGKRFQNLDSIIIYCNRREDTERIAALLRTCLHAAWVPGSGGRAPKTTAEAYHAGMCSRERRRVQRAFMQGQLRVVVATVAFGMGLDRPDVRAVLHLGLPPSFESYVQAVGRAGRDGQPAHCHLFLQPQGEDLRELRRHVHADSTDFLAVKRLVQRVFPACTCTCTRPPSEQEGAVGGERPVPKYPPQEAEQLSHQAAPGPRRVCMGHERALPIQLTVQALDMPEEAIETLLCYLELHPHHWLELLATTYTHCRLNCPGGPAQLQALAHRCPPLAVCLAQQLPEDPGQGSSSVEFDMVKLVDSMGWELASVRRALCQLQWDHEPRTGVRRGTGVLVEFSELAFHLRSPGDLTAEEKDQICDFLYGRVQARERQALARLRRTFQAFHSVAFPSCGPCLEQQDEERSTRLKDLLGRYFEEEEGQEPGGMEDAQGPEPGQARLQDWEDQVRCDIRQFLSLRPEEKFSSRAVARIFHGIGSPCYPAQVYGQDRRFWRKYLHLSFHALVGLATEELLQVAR

Sequence of MRE11-RAD50-NBS1 complex (recombinant) (Q92878 whole entry, chain 2 of 2): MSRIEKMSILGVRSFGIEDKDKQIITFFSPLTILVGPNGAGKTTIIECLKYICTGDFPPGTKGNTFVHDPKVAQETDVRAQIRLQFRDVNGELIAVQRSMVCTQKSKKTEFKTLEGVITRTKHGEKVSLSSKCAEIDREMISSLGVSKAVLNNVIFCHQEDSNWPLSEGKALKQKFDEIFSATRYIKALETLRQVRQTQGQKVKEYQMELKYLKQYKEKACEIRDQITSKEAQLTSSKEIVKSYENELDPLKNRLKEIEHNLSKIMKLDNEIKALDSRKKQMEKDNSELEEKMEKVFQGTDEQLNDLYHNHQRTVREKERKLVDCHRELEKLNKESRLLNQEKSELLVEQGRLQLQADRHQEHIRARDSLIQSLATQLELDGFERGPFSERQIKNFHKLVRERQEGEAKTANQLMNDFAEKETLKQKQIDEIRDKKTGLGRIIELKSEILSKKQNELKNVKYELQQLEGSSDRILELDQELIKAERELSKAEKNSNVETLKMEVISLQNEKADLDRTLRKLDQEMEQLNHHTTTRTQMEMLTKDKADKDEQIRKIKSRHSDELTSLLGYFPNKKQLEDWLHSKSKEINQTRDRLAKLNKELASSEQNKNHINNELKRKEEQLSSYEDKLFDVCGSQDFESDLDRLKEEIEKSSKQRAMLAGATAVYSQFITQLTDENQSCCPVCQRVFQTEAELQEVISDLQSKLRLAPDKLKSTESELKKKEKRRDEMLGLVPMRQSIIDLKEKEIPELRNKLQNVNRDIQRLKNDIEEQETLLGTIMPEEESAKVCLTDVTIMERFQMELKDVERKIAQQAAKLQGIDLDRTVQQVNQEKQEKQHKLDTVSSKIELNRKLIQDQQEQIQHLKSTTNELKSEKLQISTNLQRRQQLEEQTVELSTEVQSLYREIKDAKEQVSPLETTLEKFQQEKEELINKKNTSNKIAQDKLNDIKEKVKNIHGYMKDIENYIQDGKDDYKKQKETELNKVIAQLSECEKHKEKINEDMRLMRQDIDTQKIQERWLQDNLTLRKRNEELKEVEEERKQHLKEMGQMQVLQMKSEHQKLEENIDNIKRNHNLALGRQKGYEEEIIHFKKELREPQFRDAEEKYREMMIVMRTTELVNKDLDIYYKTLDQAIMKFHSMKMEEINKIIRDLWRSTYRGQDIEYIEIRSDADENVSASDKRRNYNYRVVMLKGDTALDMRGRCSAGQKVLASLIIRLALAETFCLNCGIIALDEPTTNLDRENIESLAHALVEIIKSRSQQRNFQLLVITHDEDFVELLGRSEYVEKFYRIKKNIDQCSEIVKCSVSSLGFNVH
Sequence of MRE11-RAD50-NBS1 complex (recombinant) (O60934 whole entry, chain 3 of 2): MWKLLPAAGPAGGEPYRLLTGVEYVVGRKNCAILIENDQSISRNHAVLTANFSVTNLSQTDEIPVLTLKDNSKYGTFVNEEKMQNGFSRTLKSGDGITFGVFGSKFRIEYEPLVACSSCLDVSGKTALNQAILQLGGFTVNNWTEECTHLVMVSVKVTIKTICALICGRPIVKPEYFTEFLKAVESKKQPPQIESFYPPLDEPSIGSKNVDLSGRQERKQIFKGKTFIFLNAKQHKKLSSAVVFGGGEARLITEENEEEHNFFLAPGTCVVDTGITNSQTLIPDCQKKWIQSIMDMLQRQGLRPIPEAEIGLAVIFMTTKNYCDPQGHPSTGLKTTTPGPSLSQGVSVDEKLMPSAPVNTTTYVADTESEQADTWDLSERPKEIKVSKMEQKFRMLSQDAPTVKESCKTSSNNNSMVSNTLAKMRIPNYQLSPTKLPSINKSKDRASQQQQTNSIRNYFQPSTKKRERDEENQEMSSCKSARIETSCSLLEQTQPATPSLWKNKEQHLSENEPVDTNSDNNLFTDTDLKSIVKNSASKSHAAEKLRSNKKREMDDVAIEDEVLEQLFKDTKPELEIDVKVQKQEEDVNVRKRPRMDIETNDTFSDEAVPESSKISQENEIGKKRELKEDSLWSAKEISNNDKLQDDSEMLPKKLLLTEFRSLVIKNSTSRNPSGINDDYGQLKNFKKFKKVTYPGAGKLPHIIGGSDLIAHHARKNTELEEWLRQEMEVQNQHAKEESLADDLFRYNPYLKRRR

binding result (recombinant RECQL4): binds
B1: recombinant CtIP (natural protein, human, UniProt Q99708 1-897, looked up)
chain: MNISGSSCGSPNSADTSSDFKDLWTKLKECHDREVQGLQVKVTKLKQERILDAQRLEEFFTKNQQLREQQKVLHETIKVLEDRLRAGLCDRCAVTEEHMRKKQQEFENIRQQNLKLITELMNERNTLQEENKKLSEQLQQKIENDQQHQAAELECEEDVIPDSPITAFSFSGVNRLRRKENPHVRYIEQTHTKLEHSVCANEMRKVSKSSTHPQHNPNENEILVADTYDQSQSPMAKAHGTSSYTPDKSSFNLATVVAETLGLGVQEESETQGPMSPLGDELYHCLEGNHKKQPFEESTRNTEDSLRFSDSTSKTPPQEELPTRVSSPVFGATSSIKSGLDLNTSLSPSLLQPGKKKHLKTLPFSNTCISRLEKTRSKSEDSALFTHHSLGSEVNKIIIQSSNKQILINKNISESLGEQNRTEYGKDSNTDKHLEPLKSLGGRTSKRKKTEEESEHEVSCPQASFDKENAFPFPMDNQFSMNGDCVMDKPLDLSDRFSAIQRQEKSQGSETSKNKFRQVTLYEALKTIPKGFSSSRKASDGNCTLPKDSPGEPCSQECIILQPLNKCSPDNKPSLQIKEENAVFKIPLRPRESLETENVLDDIKSAGSHEPIKIQTRSDHGGCELASVLQLNPCRTGKIKSLQNNQDVSFENIQWSIDPGADLSQYKMDVTVIDTKDGSQSKLGGETVDMDCTLVSETVLLKMKKQEQKGEKSSNEERKMNDSLEDMFDRTTHEEYESCLADSFSQAADEEEELSTATKKLHTHGDKQDKVKQKAFVEPYFKGDERETSLQNFPHIEVVRKKEERRKLLGHTCKECEIYYADMPAEEREKKLASCSRHRFRYIPPNTPENFWEVGFPSTQTCMERGYIKEDLDPCPRPKRRQPYNAIFSPKGKEQKT

Binder: B2
binding result [1]: binds

binding result (purified RECQL4-3XFLAG): binds
binding result (RECQL4-KM-3XFLAG): binds
B3: purified YFP-MRE11 (natural protein, human, UniProt P49959 1-708, looked up)
chain: MSTADALDDENTFKILVATDIHLGFMEKDAVRGNDTFVTLDEILRLAQENEVDFILLGGDLFHENKPSRKTLHTCLELLRKYCMGDRPVQFEILSDQSVNFGFSKFPWVNYQDGNLNISIPVFSIHGNHDDPTGADALCALDILSCAGFVNHFGRSMSVEKIDISPVLLQKGSTKIALYGLGSIPDERLYRMFVNKKVTMLRPKEDENSWFNLFVIHQNRSKHGSTNFIPEQFLDDFIDLVIWGHEHECKIAPTKNEQQLFYISQPGSSVVTSLSPGEAVKKHVGLLRIKGRKMNMHKIPLHTVRQFFMEDIVLANHPDIFNPDNPKVTQAIQSFCLEKIEEMLENAERERLGNSHQPEKPLVRLRVDYSGGFEPFSVLRFSQKFVDRVANPKDIIHFFRHREQKEKTGEEINFGKLITKPSEGTTLRVEDLVKQYFQTAEKNVQLSLLTERGMGEAVQEFVDKEEKDAIEELVKYQLEKTQRFLKERHIDALEDKIDEEVRRFRETRQKNTNEEDDEVREAMTRARALRSQSEESASAFSADDLMSIDLAEQMANDSDDSISAATNKGRGRGRGRRGGRGQNSASRGGSQRGRADTGLETSTRSRNSKTAVSASRNMSIIDAFKSTRQQPSRNVTTKNYSEVIEVDESDVEEDIFPTTSKTDQRWSSTSSSKIMSQSQVSKGVDFESSEDDDDDPFMNTSSLRRNRR
